Test results as given in PMC13544220, “Glycemic and bodyweight effects of GIPR coding variation reflect differences in surface expression and intrinsic functional impairment” (Science Advances, 2026).

What was measured:
Type in all cases: cell-based, human
[1] = tested on: wild-type and variant SNAP-GIPR; test: Surface SNAP-GIPR expression (SNAP-tag labelling) in AD293 cells; details: for AD293 Surface: Fig S3E, mean; for Surface SNAP-GIPR expression: sheet Fig 1C;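 on all read-outs here: scaled to the experimental average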
Outline: (§1)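 Surface GIPR is quantified from wide-field images after labelling intact transfected cells with a membrane-impermeant SNAP probe at 500 nM for 10 min at room temperature. Specific signal, corrected for nontransfected cells, is normalized to the experiment-wide average or to wild-type.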

[2] = tested on: wild-type and variant SNAP-GIPR; test: Surface SNAP-GIPR expression (SNAP-tag labelling) in INS-1 cells; details: Fig 4G; Mean
Outline: as §1

[3] = tested on: wild-type and variant SNAP-GIPR; test: Single-concentration GIP cAMP response by HTRF in AD293 cells; details: Fig S3F, HTRF, mean;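 further: ratio to experiment-wide average response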
Description: (§2) All variants were tested in parallel on each occasion to control for transfection efficiency differences between experiments.

[4] = tested on: wild-type and variant SNAP-GIPR; test: Single-concentration GIP cAMP response by HTRF in INS-1 cells; details: Fig S3E, mean
Description: as §2

[5] = tested on: wild-type and variant SNAP-GIPR; test: cADDis cAMP imaging in AD293 cells, ensemble, expression-matched and per decile; details: Fig S3F, cADDis, mean
Outline: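 Transient SNAP-GIPR plus cADDis BacMam in AD293; 24 h; SNAP-Surface AF647 500 nM, 10 min RT; wide-field 10X imaging at 37°C in KRBH/6 mM glucose/0.1% BSA. Cells failing IBMX/FSK response criteria excluded.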

[6] = tested on: wild-type and variant SNAP-GIPR; test: Constitutive and agonist-mediated internalization, reversible SNAP-tag labelling, AD293 cells; parameters: key to Internalisation, Vehicle / Internalisation, +GIP / Internalisation, GIP-only: % internalization: residual fluorescence after Mesna vs pre-Mesna; Surface expression: unit not given here; details: Mean; for +GIP internalisation (100 nM) / GIP-specific internalisation (100 nM) / Constitutive internalisation (100 nM) / Surface expression: Fig 4E; for +GIP internalisation (100 nM) / GIP-specific internalisation (100 nM): GIP 100 nM; for Internalisation, +GIP / Internalisation, GIP-only / Internalisation, Vehicle: Fig S4C, AD293
Outline: (§3)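 Surface SNAP-GIPR signal removable by Mesna was tracked by imaging before and 10 min after treatment in pH 8.6 TNE buffer. Internalization is the Mesna-resistant share of specific fluorescence.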

[7] = tested on: wild-type and variant SNAP-GIPR; test: Constitutive and agonist-mediated internalization, reversible SNAP-tag labelling, INS-1 cells; parameters: key to Internalisation, GIP-only / Internalisation, Vehicle / Internalisation, +GIP: % internalization: residual fluorescence after Mesna vs pre-Mesna; details: Mean; for +GIP internalisation (100 nM) / GIP-specific internalisation (100 nM) / Constitutive internalisation (100 nM): Fig 4G; for +GIP internalisation (100 nM) / GIP-specific internalisation (100 nM): GIP 100 nM; for Internalisation, +GIP / Internalisation, GIP-only / Internalisation, Vehicle: Fig S4C, INS-1
Outline: as §3

[8] = column repeated, paired with cAMP 100 nM

B1: E463Q (protein, UniProt P48546 22-466, looked up, variant E463Q)
Gastric inhibitory …: RAETGSKGQTAGELYQRWERYRRECQETLAAAEPPSGLACNGSFDMYVCWDYAAPNATARASCPWYLPWHHHVAAGFVLRQCGSDGQWGLWRDHTQCENPEKNEAFLDQRLILERLQVMYTVGYSLSLATLLLALLILSLFRRLHCTRNYIHINLFTSFMLRAAAILSRDRLLPRPGPYLGDQALALWNQALAACRTAQIVTQYCVGANYTWLLVEGVYLHSLLVLVGGSEEGHFRYYLLLGWGAPALFVIPWVIVRYLYENTQCWERNEVKAIWWIIRTPILMTILINFLIFIRILGILLSKLRTRQMRCRDYRLRLARSTLTLVPLLGVHEVVFAPVTEEQARGALRFAKLGFEIFLSSFQGFLVSVLYCFINKEVQSEIRRGWHHCRLRRSLGEEQRQLPERAFRALPSGSGPGEVPTSRGLSSGTLPGPGNEASRELQSYC
AD293 Surface [1, 8]: 1.191
AD293 Surface ([1]; paired with cAMP 100 pM): 1.191
Surface SNAP-GIPR expression ([1]; replicate 1): 1.219
Surface SNAP-GIPR expression ([1]; replicate 2): 1.021
Surface SNAP-GIPR expression ([1]; replicate 3): 0.7247
Surface SNAP-GIPR expression ([1]; replicate 4): 1.851
Surface SNAP-GIPR expression ([1]; replicate 5): 0.8113
Surface SNAP-GIPR expression ([1]; replicate 6): 1.148
Surface SNAP-GIPR expression ([1]; replicate 7): 0.8161
Surface SNAP-GIPR expression ([1]; replicate 8): 1.203
Surface SNAP-GIPR expression ([1]; replicate 9): 1.004
Surface SNAP-GIPR expression ([1]; replicate 10): 0.9721
Surface SNAP-GIPR expression ([1]; replicate 11): 1.39
Surface SNAP-GIPR expression ([1]; replicate 12): 1.373
Surface SNAP-GIPR expression ([1]; replicate 13): 1.65
Surface SNAP-GIPR expression ([1]; replicate 14): 1.648
Surface SNAP-GIPR expression ([1]; replicate 15): 1.459
Surface SNAP-GIPR expression ([1]; replicate 16): 1.416
Surface SNAP-GIPR expression ([1]; replicate 17): 1.284
Surface SNAP-GIPR expression ([1]; replicate 18): 1.262
Surface SNAP-GIPR expression ([1]; replicate 19): 1.404
Surface SNAP-GIPR expression ([1]; replicate 20): 1.518
Surface SNAP-GIPR expression ([1]; replicate 21): 1.445
Surface SNAP-GIPR expression ([1]; replicate 22): 1.187
Surface SNAP-GIPR expression ([1]; replicate 23): 1.117
Surface SNAP-GIPR expression ([1]; replicate 24): 1.135
Surface SNAP-GIPR expression ([1]; replicate 25): 1.182
Surface SNAP-GIPR expression ([1]; replicate 26): 1.219
Surface SNAP-GIPR expression ([1]; replicate 27): 0.8928
Surface SNAP-GIPR expression ([1]; replicate 28): 1.514
Surface SNAP-GIPR expression ([1]; replicate 29): 0.593
Surface SNAP-GIPR expression ([1]; replicate 30): 0.9046
Surface SNAP-GIPR expression ([1]; replicate 31): 0.8556
Surface SNAP-GIPR expression ([1]; replicate 32): 1.334
Surface SNAP-GIPR expression ([1]; replicate 33): 1.324
Surface SNAP-GIPR expression ([1]; replicate 34): 1.052
Surface SNAP-GIPR expression ([1]; replicate 35): 1.061
Surface SNAP-GIPR expression ([1]; replicate 36): 1.215
Surface SNAP-GIPR expression ([1]; replicate 37): 1.115
Surface SNAP-GIPR expression ([1]; replicate 38): 0.8974
Surface SNAP-GIPR expression ([1]; replicate 39): 1.265
Surface SNAP-GIPR expression ([1]; replicate 40): 1.153
Surface SNAP-GIPR expression ([1]; replicate 41): 1.19
Surface expression [2]: 1.282
AD293 100 pM HTRF [3]: 1.1295
AD293 100 nM HTRF [3]: 1.311
INS-1 cAMP (100 nM) [4]: 1.2
AD293 100 pM cADDis [5]: 34.7191
AD293 100 nM cADDis [5]: 36.9
+GIP internalisation (100 nM) [6]: 0.6258
GIP-specific internalisation (100 nM) [6]: 0.1525
Constitutive internalisation (100 nM) [6]: 0.4733
Surface expression [6]: 1.14
Internalisation, +GIP [6]: 55.318
Internalisation, GIP-only [6]: 13.3425
Internalisation, Vehicle [6]: 41.9756
+GIP internalisation (100 nM) [7]: 0.6116
GIP-specific internalisation (100 nM) [7]: 0.1296
Constitutive internalisation (100 nM) [7]: 0.4821
Internalisation, +GIP [7]: 48.5083
Internalisation, GIP-only [7]: 10.305
Internalisation, Vehicle [7]: 38.2033

B2: I403V (protein, UniProt P48546 22-466, looked up, variant I403V)
Gastric inhibitory …: RAETGSKGQTAGELYQRWERYRRECQETLAAAEPPSGLACNGSFDMYVCWDYAAPNATARASCPWYLPWHHHVAAGFVLRQCGSDGQWGLWRDHTQCENPEKNEAFLDQRLILERLQVMYTVGYSLSLATLLLALLILSLFRRLHCTRNYIHINLFTSFMLRAAAILSRDRLLPRPGPYLGDQALALWNQALAACRTAQIVTQYCVGANYTWLLVEGVYLHSLLVLVGGSEEGHFRYYLLLGWGAPALFVIPWVIVRYLYENTQCWERNEVKAIWWIIRTPILMTILINFLIFIRILGILLSKLRTRQMRCRDYRLRLARSTLTLVPLLGVHEVVFAPVTEEQARGALRFAKLGFEIFLSSFQGFLVSVLYCFINKEVQSEVRRGWHHCRLRRSLGEEQRQLPERAFRALPSGSGPGEVPTSRGLSSGTLPGPGNEASRELESYC
AD293 Surface [1, 8]: 1.077
AD293 Surface ([1]; paired with cAMP 100 pM): 1.077
Surface SNAP-GIPR expression ([1]; replicate 1): 1.081
Surface SNAP-GIPR expression ([1]; replicate 2): 1.363
Surface SNAP-GIPR expression ([1]; replicate 3): 0.2202
Surface SNAP-GIPR expression ([1]; replicate 4): 1.549
Surface SNAP-GIPR expression ([1]; replicate 5): 1.258
Surface SNAP-GIPR expression ([1]; replicate 6): 1.264
Surface SNAP-GIPR expression ([1]; replicate 7): 0.985
Surface SNAP-GIPR expression ([1]; replicate 8): 0.9444
Surface SNAP-GIPR expression ([1]; replicate 9): 1.045
Surface SNAP-GIPR expression ([1]; replicate 10): 1.237
Surface SNAP-GIPR expression ([1]; replicate 11): 0.9384
Surface SNAP-GIPR expression ([1]; replicate 12): 0.958
Surface SNAP-GIPR expression ([1]; replicate 13): 1.387
Surface SNAP-GIPR expression ([1]; replicate 14): 1.061
Surface SNAP-GIPR expression ([1]; replicate 15): 1.05
Surface SNAP-GIPR expression ([1]; replicate 16): 0.9753
Surface SNAP-GIPR expression ([1]; replicate 17): 1.072
Surface SNAP-GIPR expression ([1]; replicate 18): 0.9656
Surface SNAP-GIPR expression ([1]; replicate 19): 0.8084
Surface SNAP-GIPR expression ([1]; replicate 20): 1.091
Surface SNAP-GIPR expression ([1]; replicate 21): 0.9955
Surface SNAP-GIPR expression ([1]; replicate 22): 1.089
Surface SNAP-GIPR expression ([1]; replicate 23): 1.06
Surface SNAP-GIPR expression ([1]; replicate 24): 1.048
Surface SNAP-GIPR expression ([1]; replicate 25): 0.9764
Surface SNAP-GIPR expression ([1]; replicate 26): 0.8875
Surface SNAP-GIPR expression ([1]; replicate 27): 0.9058
Surface SNAP-GIPR expression ([1]; replicate 28): 1.123
Surface SNAP-GIPR expression ([1]; replicate 29): 1.103
Surface SNAP-GIPR expression ([1]; replicate 30): 1.39
Surface SNAP-GIPR expression ([1]; replicate 31): 1.166
Surface SNAP-GIPR expression ([1]; replicate 32): 1.223
Surface SNAP-GIPR expression ([1]; replicate 33): 1.12
Surface SNAP-GIPR expression ([1]; replicate 34): 1.156
Surface SNAP-GIPR expression ([1]; replicate 35): 1.076
Surface SNAP-GIPR expression ([1]; replicate 36): 1.273
Surface SNAP-GIPR expression ([1]; replicate 37): 1.139
Surface SNAP-GIPR expression ([1]; replicate 38): 1.049
Surface SNAP-GIPR expression ([1]; replicate 39): 1.042
Surface SNAP-GIPR expression ([1]; replicate 40): 1.006
Surface SNAP-GIPR expression ([1]; replicate 41): 1.094
Surface expression [2]: 1.09
AD293 100 pM HTRF [3]: 1.267
AD293 100 nM HTRF [3]: 1.595
INS-1 cAMP (100 nM) [4]: 1.36
AD293 100 pM cADDis [5]: 32.3253
AD293 100 nM cADDis [5]: 38.62
+GIP internalisation (100 nM) [6]: 0.6419
GIP-specific internalisation (100 nM) [6]: 0.176
Constitutive internalisation (100 nM) [6]: 0.4659
Surface expression [6]: 1.133
Internalisation, +GIP [6]: 57.0289
Internalisation, GIP-only [6]: 15.5744
Internalisation, Vehicle [6]: 41.4545
+GIP internalisation (100 nM) [7]: 0.5388
GIP-specific internalisation (100 nM) [7]: 0.1314
Constitutive internalisation (100 nM) [7]: 0.4074
Internalisation, +GIP [7]: 49.7833
Internalisation, GIP-only [7]: 12.345
Internalisation, Vehicle [7]: 37.4383
